We go through one substance from patent US20220016165A1.

For the experiment, the target named is interleukin-6 receptor (IL-6R) (human) (UniProt P08887). The experiment in a line: cell-based or functional assay.
Chain of interleukin-6 receptor (IL-6R) (human) (P08887 20-468 limits assumed): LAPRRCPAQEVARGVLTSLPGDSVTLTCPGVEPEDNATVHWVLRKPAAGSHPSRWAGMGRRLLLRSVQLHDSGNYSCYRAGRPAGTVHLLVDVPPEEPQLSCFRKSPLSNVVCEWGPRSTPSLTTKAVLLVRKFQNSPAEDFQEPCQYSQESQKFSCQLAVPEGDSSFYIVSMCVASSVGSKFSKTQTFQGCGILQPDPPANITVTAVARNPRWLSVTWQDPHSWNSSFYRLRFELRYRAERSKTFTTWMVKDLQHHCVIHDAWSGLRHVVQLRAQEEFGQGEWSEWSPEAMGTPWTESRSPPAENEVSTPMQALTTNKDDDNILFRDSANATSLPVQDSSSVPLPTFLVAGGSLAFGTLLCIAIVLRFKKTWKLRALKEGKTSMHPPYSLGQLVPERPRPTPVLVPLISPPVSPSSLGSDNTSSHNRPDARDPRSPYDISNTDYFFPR

Regarding tocilizumab (antibody), the median peak levels of serum IL-6 (day 3-5) is 10 fold.
